Target: LGF2
Test: two-hybrid; BacterioMatch II bacterial two-hybrid in E. coli reporter cells; bait in pBT as λcI fusion, prey in pTRG as RNAPα fusion; 30 ng each of bait and prey vector; HIS3 reporter, cfu on selective screening medium with 3-AT; three repeats, mean ± 1 SD

cfu on selective screening medium (with 3-AT): 1000 cfu
Substance: Gal11^P (domain or fragment)

Source: publication PMC4315436
